According to the FLAb antibody collection (doi:10.1101/2023.12.08.570889):
Positions count from the first letter of the chain named.

Molecular target: TSLP, Q969D9
Experiment: Kd (SPR)

B1: unnamed (protein)
chain 1: QMQLVESGGGVVQPGRSLRLSCAASGFTFSTFAMHWVRQAPGKGLEWVAVIWYDGSNKHYADSVKGRFTITRDNSKNTLNLQMNSLRAEDTAVYYCARSPRYDDYLEAFDVWGQGTMVTVSS
chain 2: SYVLTQPPSVSVAPGQTARITCGGNNLGSKSVHWYQQKPGQAPVLVVYDDSDRPSWIPERFSGSNSGNTATLTISRGEAGDEADYYCQVWDSSSDHVVFGGGTKLTVL
Which Kd does the source give for B1 here?
The Kd was 80.5 nM.

B2: unnamed (protein)
chain 1: B1 chain 1 with S99A, Y105L, L106Y
chain 2: B1 chain 2
With B2 as the binder, how does the Kd read?
Its Kd is 188 nM.

B3: unnamed (protein)
chain 1: B1 chain 1 with F32Y, S99A, D104E, L106Y
chain 2: B1 chain 2
B3 was tested. Which Kd did it give?
Its Kd is 224 nM.

B4: unnamed (protein)
chain 1: B1 chain 1 with S99A, D103Y, D104Y, L106Y
chain 2: B1 chain 2
For B4, which Kd is on record?
The Kd was 208 nM.

B5: unnamed (protein)
chain 1: B1 chain 1 with S99A, L106Y
chain 2: B1 chain 2
For B5, which Kd is on record?
Its Kd is 92.5 nM.

B6: unnamed (protein)
chain 1: B1 chain 1 with S99A, Y105D, L106Y
chain 2: B1 chain 2
B6 was tested. Which Kd did it give?
The Kd was 112 nM.

B7: unnamed (protein)
chain 1: B1 chain 1 with S99A, D103Y, D104E, L106Y
chain 2: B1 chain 2
How did the Kd turn out when B7 was run?
The Kd was 106 nM.

B8: unnamed (protein)
chain 1: B1 chain 1 with S99A, D103Y, L106W
chain 2: B1 chain 2
For B8, which Kd is on record?
Its Kd is 221 nM.

B9: unnamed (protein)
chain 1: B1 chain 1 with S99A, Y105R, L106Y
chain 2: B1 chain 2
For B9, which Kd is on record?
The Kd was 490 nM.

B10: unnamed (protein)
chain 1: B1 chain 1 with S99A, D104E, Y105H, L106Y
chain 2: B1 chain 2
How did the Kd turn out when B10 was run?
Its Kd is 777 nM.

B11: unnamed (protein)
chain 1: B1 chain 1 with S99A, D104W
chain 2: B1 chain 2
How did the Kd turn out when B11 was run?
Its Kd is 157 nM.

B12: unnamed (protein)
chain 1: B1 chain 1 with F32Y, D103Y, D104E, L106Y
chain 2: B1 chain 2
How did the Kd turn out when B12 was run?
The Kd was 57 nM.

B13: unnamed (protein)
chain 1: B1 chain 1 with F32Y, S99A, Y105L, L106Y
chain 2: B1 chain 2
For B13, which Kd is on record?
Its Kd is 188 nM.

B14: unnamed (protein)
chain 1: B1 chain 1 with F32Y, S99A, D104E, L106V
chain 2: B1 chain 2
For B14, which Kd is on record?
The Kd was 195 nM.

B15: unnamed (protein)
chain 1: B1 chain 1 with S99A, D104E, L106W
chain 2: B1 chain 2
How did the Kd turn out when B15 was run?
The Kd was 764 nM.

B16: unnamed (protein)
chain 1: B1 chain 1 with T31S, S99A, D104E, L106Y
chain 2: B1 chain 2
For B16, which Kd is on record?
The Kd was 186 nM.

B17: unnamed (protein)
chain 1: B1 chain 1 with F32Y, D104E, L106Y
chain 2: B1 chain 2
How did the Kd turn out when B17 was run?
The Kd was 219 nM.

B18: unnamed (protein)
chain 1: B1 chain 1 with D103Y, L106Y
chain 2: B1 chain 2
Which Kd does the source give for B18 here?
Its Kd is 41.8 nM.

B19: unnamed (protein)
chain 1: B1 chain 1 with F32Y, S99A, D104E, Y105D, L106Y
chain 2: B1 chain 2
With B19 as the binder, how does the Kd read?
The Kd was 184 nM.
